Measured values: PMC3831237

B1: Nfo (Pseudomonas putida S16) (protein)
chain: MKGYNVYANGIRQHIIHFPGTGSPLLLIPGITSPAVTWGFVAERLAKYFDVHVVDVRGRGLSESGDLDYSLDAMADDLVALAQRMEGVVVLGHSMGARIAIRAARKDSQVFSRLILVDPPVSGPGRRPYPAKWSWYAESIRLAQRGCTAMEMRSYCPTWTDEQIELRAEWLHTCQYTAVKTAFDGFHTDDIHTDLAQLTLPIQLVVAGGAEVIQPDDIAEIISLAPQTTTYVVEEAGHMIPWDNLEGFITAVSNR

What was measured:
[1] = target: 2,5-DHP dioxygenase Hpo from Pseudomonas putida S16 (non-His6-tagged) (Pseudomonas putida S16); experiment: SEC + native gel or EMSA
[2] = substrate: O=CNC(=O)/C=C/C(=O)O; experiment: purified protein; details: 20 mM sodium phosphate pH 6.7, 25 °C

Row | Molecule | stoichiometry N [1] | Km [2] [mM] | kcat [2] [s⁻¹]
1 | 2,5-DHP dioxygenase Hpo from Pseudomonas putida S16 (non-His6-tagged) (enzyme) | 3 |  | 
2 | B1 |  | 5.83 ± 0.46 | 2.4 ± 0.1
